Source: the RNAGym collection of RNA variant scans (doi:10.7554/elife.80360)

B1: Hairpin Ribozyme (parent)
chain: GUCCUCUUUCACGUGCGCGUGAAAGAGAGAAGUGAACCAGAGAAACACACGUUGUGGUAUAUUACCUGGUA

Variants of: B1
Test: self-cleavage, relative activity (ratio to wild type); higher = more cleavage; co-transcriptional

Variant | self-cleavage
G40A G54U | 0.183
G40C A61G | 0.0698
C38U U67A | 0.119
A39U A49U | 0.0838
A39U A49C | 0.145
A39G G69U | 0.122
A39C G51C | 0.324
G40C C66G | 0.519
G40C C66A | 0.105
G40C C66U | 0.184
C38A U63G | 0.165
C38A U63A | 0.0537
G40A G42A | 0.0412
G40A G51C | 0.238
G40U G69C | 0.14
A39C A41G | 0.591
C38U G69A | 0.138
A39G G68A | 0.0973
A39G G68C | 0.103
C38A U58C | 0.181
A41C A49C | 0.217
G40U G42U | 0.116
G40C G68C | 0.0987
G40C G68A | 0.132

Variant | self-cleavage
C38G G54C | 0.12
C38G G54U | 0.0948
C38U G56A | 0.106
C38U G56U | 0.14
G40A C50A | 0.194
G40A G69U | 0.197
G40C A71U | 0.09
C38A G69U | 0.0684
C38G C46A | 0.148
C38G C46U | 0.116
A39G U67A | 0.126
G40U A49G | 0.175
A39G A59U | 0.153
C37U G69A | 0.46
C37U G69U | 0.438
G40A G56C | 0.146
G40A G56U | 0.0994
A39C G54A | 0.121
G40U U62G | 0.111
G40C G56A | 0.107
C38G A47U | 0.171
C38G A64U | 0.112
C38A G68C | 0.137
C38A G68U | 0.735

Variant | self-cleavage
C37U A49G | 0.508
G40A A49G | 0.182
G40A A49U | 0.0787
C38A U62A | 0.218
A39G U55G | 0.12
A39G U55C | 0.119
C38G C48A | 0.202
C38A C50G | 0.089
A39C U62C | 0.161
C38U U62A | 0.128
C38U U62C | 0.273
A39C A47C | 0.207
C38U U58C | 0.544
C38A A43U | 0.152
A39G G56A | 0.147
A39G G56U | 0.0978
A39U G42U | 0.172
G40C G54U | 0.0743
G40C G54A | 0.124
G40C U63C | 0.164
C38G A45G | 0.259
C38G A45C | 0.0432
C38G A49C | 0.106
C38G A49G | 0.0605

Variant | self-cleavage
A39U U53A | 0.233
A39C G69U | 0.147
A39C G69C | 0.188
C37U C65A | 0.533
G40U U60C | 0.148
G40U A59C | 0.0879
G40U A59G | 0.115
A39U A61C | 0.187
G40C A47U | 0.0303
A39G A45G | 0.0935
A39U A47G | 0.158
A41C A44C | 0.0994
C38A U60A | 0.0853
G40C U55A | 0.107
G40C C46A | 0.155
A39U A71C | 0.694
A39C U63A | 0.17
C38G U60G | 0.146
C38G G42C | 0.134
A39G A61C | 0.139
A39G A61G | 0.123
C38U A64U | 0.301
A39C U52C | 0.56
G40U G56U | 0.111

Variant | self-cleavage
A39C G42U | 0.11
C37U C50G | 0.226
A39G U58C | 0.272
G40C A59G | 0.0907
G40C A59C | 0.0991
A41C A43C | 0.0734
C37U G54C | 0.338
C37U G57A | 0.169
C38U A59U | 0.228
G40A U70G | 0.182
G40A U70A | 0.158
C38A A61U | 0.064
C38U C46A | 0.182
G40U G68A | 0.134
G40U G68C | 0.163
C38U G40U | 0.101
C38G U63G | 0.231
C38G U63A | 0.117
A39G C65U | 0.263
C38A A59C | 0.103
C38U U60A | 0.428
C38U U60C | 0.759
A41C C48G | 0.199
G40U C48A | 0.0709

Variant | self-cleavage
C37U U62G | 0.166
C37U U62A | 0.165
C38U U55C | 0.231
C38A C46G | 0.133
G40U C65U | 0.177
G40U C65G | 0.099
C37U U67A | 0.175
C37U A71G | 0.779
G40A A41C | 0.274
A39U A43C | 0.129
C38A C65G | 0.104
C38A C65U | 0.204
C37U U55C | 0.172
C37U U55G | 0.159
C37U U55A | 0.143
A39C U55A | 0.148
C38A A71U | 0.129
C38A A44C | 0.108
C37U G56U | 0.13
C37U G56C | 0.198
C38G C65A | 0.145
A39G U62G | 0.074
A39U A45C | 0.123
A39U A45G | 0.252

Variant | self-cleavage
G40U U70G | 0.0618
C38U A44C | 0.0457
C38U A44U | 0.135
G40A A71C | 0.574
G40A A71U | 0.198
C38G U53C | 0.196
C38G U53G | 0.206
A39U C50G | 0.0689
A39U C50A | 0.139
A39U C50U | 0.204
A41C A59U | 0.173
A39C A44G | 0.0893
C38G G69A | 0.196
C38G G69C | 0.241
C38G G69U | 0.155
A39G A43U | 0.141
C37U U70C | 0.603
C37U U70A | 0.544
C38G G57C | 0.103
G40U C46G | 0.136
C38G C50A | 0.162
C38G C50G | 0.0871
A39G G42A | 0.114
A41C C50G | 0.667

Variant | self-cleavage
A39U G57U | 0.123
A39U G57C | 0.134
A39U G57A | 0.155
C37U U58C | 0.743
A39U U62G | 0.088
G40A C65A | 0.315
G40A C65U | 0.435
A39G A71C | 0.303
A39G A71U | 0.176
C38A G51U | 0.195
A39C C66G | 0.0809
A39C C66U | 0.306
C38G A59U | 0.125
C38G A59G | 0.162
C38A C48U | 0.135
C38U A43G | 0.0885
C38U A43U | 0.153
A41C A45C | 0.11
A41C A45U | 0.202
A41C A45G | 0.257
C38U C66U | 0.192
C38U C66A | 0.167
G40U U58G | 0.183
G40C G51U | 0.131

Variant | self-cleavage
G40C G51C | 0.127
A39C A45C | 0.174
A39C A45U | 0.231
C38G U58G | 0.175
C38G U58A | 0.139
C38G U58C | 0.185
C38G U55A | 0.288
C38G U55G | 0.193
A39U U60C | 0.378
A39U U60A | 0.345
G40C A41U | 0.13
A41C A47G | 0.0213
G40A C66U | 0.832
G40A C66G | 0.164
A39G A47U | 0.134
A39G A47G | 0.116
A39C C48U | 0.145
A39G G40A | 0.102
A39U U67G | 0.371
C38U C65A | 0.453
C38G G68U | 0.514
C38U U70C | 0.268
C38U A45G | 0.197
C38U A45C | 0.108

Variant | self-cleavage
A39U U52C | 0.378
A39U U55A | 0.155
A39G A44C | 0.0747
C37U C48A | 0.12
G40A G57A | 0.0955
A41C C46G | 0.117
A39G U60C | 0.424
A39U U63C | 0.144
G40C U67G | 0.157
G40C G42C | 0.107
A39G A49G | 0.116
A39G G54U | 0.163
C38A G40A | 0.139
G40A U60G | 0.214
G40A U60A | 0.271
C38G U62C | 0.236
A39U C66A | 0.121
A39U C66G | 0.135
G40U U52G | 0.172
G40U U52C | 0.333
G40U U52A | 0.207
A39G C48A | 0.0878
G40A U55A | 0.157
G40C C50A | 0.0683

Variant | self-cleavage
C38U A41C | 0.619
C38U A41U | 0.742
C38U A41G | 0.648
C38U G51C | 0.583
C38U A49C | 0.245
A39U G51U | 0.632
G40U U53C | 0.344
G40U U53G | 0.151
C38U A71U | 0.401
C38U A71C | 0.889
A39C U53A | 0.549
C37U C66U | 0.264
G40U G54U | 0.096
A39C A61U | 0.125
A39U U70G | 0.333
A39U C46U | 0.114
A39U C46A | 0.166
C37U C46U | 0.198
G40U G57C | 0.124
G40U G57U | 0.153
C38G U67C | 0.119
G40A A47G | 0.138
G40U C50G | 0.136
G40U C50A | 0.0746

Variant | self-cleavage
A41C A61U | 0.234
C37U G42C | 0.226
C37U G42A | 0.198
A39G A41G | 0.619
A39G A41U | 0.474
G40C A43G | 0.138
G40C U58C | 0.0707
G40C U58A | 0.16
A39G U63A | 0.111
C38G G40U | 0.169
C38G G40A | 0.148
A39U G54C | 0.0503
G40A A44U | 0.178
G40A A45U | 0.149
A39C A49C | 0.151
A39C A49U | 0.12
G40A U52G | 0.212
G40A C46A | 0.184
C38G U70G | 0.216
G40C A64U | 0.125
C37U U60G | 0.451
C37U U60C | 0.645
C37U U60A | 0.352
G40A A43U | 0.0963

Variant | self-cleavage
G40A A43G | 0.18
C38G A43U | 0.154
G40C G69A | 0.111
G40C G69U | 0.128
G40U A61G | 0.186
C38G A41U | 0.358
C38A G56U | 0.179
C38U G57A | 0.229
A39G C66G | 0.0926
A39U G69U | 0.151
A39U G69A | 0.157
A39U G69C | 0.073
A41C A64U | 0.267
G40U A41G | 0.419
G40U A41C | 0.255
G40U U55G | 0.232
G40U U55C | 0.171
C38G G56C | 0.0901
G40U U63G | 0.104
G40U U63C | 0.092
G40A A61G | 0.139
G40C C48G | 0.127
A39U G56A | 0.114
G40C U52C | 0.137

Variant | self-cleavage
G40C U52G | 0.064
A39C G56U | 0.134
A39C G56C | 0.144
C38U C50G | 0.0694
C38U G42A | 0.132
G40A U62G | 0.133
A39U A41G | 0.644
G40A U67A | 0.108
G40A U67C | 0.121
A39C C50U | 0.156
C38U U63A | 0.141
G40U A43U | 0.148
G40U A43G | 0.134
G40A A64U | 0.139
G40A A64C | 0.16
A39C U67A | 0.272
C38U G54C | 0.235
C38U G54U | 0.336
G40U A71G | 0.209
G40U A71C | 0.319
C38G A44C | 0.17
C38G A44G | 0.335
